# Earlier results, collected in paper PMC2921030.
# Biological target: 4E-BP1 peptide (Homo sapiens) (UniProt Q13541)
# Chain of UniProt Q13541 (Q13541 2-118): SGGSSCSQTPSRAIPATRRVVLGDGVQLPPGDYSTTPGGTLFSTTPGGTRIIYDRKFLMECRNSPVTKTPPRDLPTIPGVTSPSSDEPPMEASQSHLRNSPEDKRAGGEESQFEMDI
substance,measurement,value
eIF4E (from UniProt P06730),Kd,< 50 nM
